The target of the assay is recombinant 50 kD C-terminal BoNT/A domain (HC50A) (Clostridium botulinum, UniProt P0DPI0 871-1296).
recombinant 50 kD C-terminal BoNT/A domain (HC50A), sequence (P0DPI0 871-1296 limits assumed): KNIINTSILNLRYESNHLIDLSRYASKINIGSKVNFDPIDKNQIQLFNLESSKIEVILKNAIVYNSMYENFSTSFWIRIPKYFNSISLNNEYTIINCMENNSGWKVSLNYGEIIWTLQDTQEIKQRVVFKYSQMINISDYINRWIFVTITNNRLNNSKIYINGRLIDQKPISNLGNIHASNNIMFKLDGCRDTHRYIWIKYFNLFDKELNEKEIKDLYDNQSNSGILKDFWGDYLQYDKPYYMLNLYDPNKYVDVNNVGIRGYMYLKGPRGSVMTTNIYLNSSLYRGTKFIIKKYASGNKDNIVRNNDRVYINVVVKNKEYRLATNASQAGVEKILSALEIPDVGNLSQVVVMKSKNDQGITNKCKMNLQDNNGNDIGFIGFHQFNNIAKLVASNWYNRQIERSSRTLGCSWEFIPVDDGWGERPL

B1: 6A antibody (human monoclonal IgG secreted by hybridoma 6A, ATCC accession no. PTA-8870) (antibody, V domains shown)
VH: EVQLVESGGGVVKPGGSLRLSCTAFGFTFEDFGMHWVRQAPGKGLEWVSLVSGEGGSKYYADSVKGRFTISRDNKKHSLYLHMNSLKTEDTALYYCAKDVWTYHYDSSGYQYYYGMDVWGQGTTVTVSS
VL: QEPAVSVALGQTVRITCQGDSLRSYSASWYQQRPGQAPLFVMYGKDKRPSGIPDRFSGSASGNTASLTITGAQAEDEADYYCNCRDSSNQYWIFGGGTKVTVL
Broadly, the Kd is the constant that tells how readily two partners part at equilibrium. As a reminder, the kon is the rate constant with which the complex forms. Consider B1, for which the Kd was determined as 6.9 pM and the kon came out at 440000 M⁻¹ s⁻¹.
